Experimental data from the supplement of paper PMC9112550, “Optimization of the antimicrobial peptide Bac7 by deep mutational scanning” (BMC Biology, 2022).

tested on: Escherichia coli TOP10; test: shrunken log2 fold change of peptide-encoding DNA abundance (4.5 h post-induction vs induction); higher = less antimicrobial activity (less host growth inhibition); conditions: time post-induction: 4.5 h; library: site-saturation at positions 5, 18, 19, 20
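Note: peptides expressed intracellularly from a pBAD plasmid library in pooled LB shake-flask culture, induced with 0.3% L-arabinose, DNA abundance read by NGS, three biological replicates, DESeq2 with apeglm shrinkage.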

Sequence	shrunken log2 fold change
RRIRMRPPRLPRPRPRPPSHPRP	0.622
RRIRMRPPRLPRPRPRPPSWPRP	0.245
RRIRMRPPRLPRPRPRPPTKPRP	0.508
RRIRMRPPRLPRPRPRPPTSPRP	1.23
RRIRMRPPRLPRPRPRPPVKPRP	0.512
RRIRMRPPRLPRPRPRPPVMPRP	0.616
RRIRMRPPRLPRPRPRPPVQPRP	0.378
RRIRMRPPRLPRPRPRPPVWPRP	0.825
RRIRMRPPRLPRPRPRPPWVPRP	0.241
RRIRMRPPRLPRPRPRPPYWPRP	0.37
RRIRMRPPRLPRPRPRPQACPRP	-0.12
RRIRMRPPRLPRPRPRPQANPRP	0.271
RRIRMRPPRLPRPRPRPQCPPRP	-0.181
RRIRMRPPRLPRPRPRPQFGPRP	0.104
RRIRMRPPRLPRPRPRPQGNPRP	-0.0324
RRIRMRPPRLPRPRPRPQGQPRP	0.253
RRIRMRPPRLPRPRPRPQHNPRP	-0.605
RRIRMRPPRLPRPRPRPQHPPRP	-0.0395
RRIRMRPPRLPRPRPRPQIMPRP	-0.0466
RRIRMRPPRLPRPRPRPQISPRP	-0.28
RRIRMRPPRLPRPRPRPQIYPRP	-0.464
RRIRMRPPRLPRPRPRPQKKPRP	-0.0151
RRIRMRPPRLPRPRPRPQNEPRP	0.155
RRIRMRPPRLPRPRPRPQNVPRP	-0.0183
RRIRMRPPRLPRPRPRPQQDPRP	0.741

Sequence	shrunken log2 fold change
RRIRMRPPRLPRPRPRPQQKPRP	0.0182
RRIRMRPPRLPRPRPRPQSCPRP	-0.00838
RRIRMRPPRLPRPRPRPQSFPRP	-0.199
RRIRMRPPRLPRPRPRPQSMPRP	0.143
RRIRMRPPRLPRPRPRPQTYPRP	0.144
RRIRMRPPRLPRPRPRPQVAPRP	0.0435
RRIRMRPPRLPRPRPRPQVNPRP	0.166
RRIRMRPPRLPRPRPRPQWFPRP	-0.0662
RRIRMRPPRLPRPRPRPQYLPRP	-0.0275
RRIRMRPPRLPRPRPRPRAIPRP	0.52
RRIRMRPPRLPRPRPRPRALPRP	2.22
RRIRMRPPRLPRPRPRPRCEPRP	0.704
RRIRMRPPRLPRPRPRPRCFPRP	0.397
RRIRMRPPRLPRPRPRPRDAPRP	1.49
RRIRMRPPRLPRPRPRPRDEPRP	1.43
RRIRMRPPRLPRPRPRPRFGPRP	0.853
RRIRMRPPRLPRPRPRPRGWPRP	1.34
RRIRMRPPRLPRPRPRPRHHPRP	0.415
RRIRMRPPRLPRPRPRPRKSPRP	0.902
RRIRMRPPRLPRPRPRPRLGPRP	0.644
RRIRMRPPRLPRPRPRPRLPPRP	0.805
RRIRMRPPRLPRPRPRPRQFPRP	0.582
RRIRMRPPRLPRPRPRPRQIPRP	1.19
RRIRMRPPRLPRPRPRPRQMPRP	0.862
RRIRMRPPRLPRPRPRPRQNPRP	0.62

Sequence	shrunken log2 fold change
RRIRMRPPRLPRPRPRPRSLPRP	0.27
RRIRMRPPRLPRPRPRPRVGPRP	1.02
RRIRMRPPRLPRPRPRPRVQPRP	0.64
RRIRMRPPRLPRPRPRPRWDPRP	0.793
RRIRMRPPRLPRPRPRPRYDPRP	0.185
RRIRMRPPRLPRPRPRPRYIPRP	-0.31
RRIRMRPPRLPRPRPRPRYVPRP	-0.18
RRIRMRPPRLPRPRPRPSASPRP	1.7
RRIRMRPPRLPRPRPRPSCVPRP	0.22
RRIRMRPPRLPRPRPRPSDLPRP	-0.035
RRIRMRPPRLPRPRPRPSDPPRP	-0.0636
RRIRMRPPRLPRPRPRPSFDPRP	0.485
RRIRMRPPRLPRPRPRPSHCPRP	0.0171
RRIRMRPPRLPRPRPRPSIMPRP	0.23
RRIRMRPPRLPRPRPRPSLIPRP	-0.245
RRIRMRPPRLPRPRPRPSLVPRP	-0.252
RRIRMRPPRLPRPRPRPSMNPRP	-0.287
RRIRMRPPRLPRPRPRPSPEPRP	1.12
RRIRMRPPRLPRPRPRPSREPRP	0.545
RRIRMRPPRLPRPRPRPSRVPRP	0.885
RRIRMRPPRLPRPRPRPSSSPRP	0.0411
RRIRMRPPRLPRPRPRPSSVPRP	3.19
RRIRMRPPRLPRPRPRPSTEPRP	1.63
RRIRMRPPRLPRPRPRPSTKPRP	0.291
RRIRMRPPRLPRPRPRPSTTPRP	0.352
